Measurements published in patent EP4585616A1, “ANTIBODY CAPABLE OF SPECIFICALLY BINDING TO ROR1, […] THEREOF, AND PREPARATION METHOD THEREFOR AND USE THEREOF” (Hefei Institutes of Physical Science, Chinese Academy of …, priority 2022, dated 2024).

Key:
[1] = system: MDA-MB-231 tumors; assay: In vivo antitumor activity, subcutaneous tumor model; parameters: species or system immunodeficient mice (NCG or Balb/c-nude); settings: 5 mg/kg once a week, tail vein, 3 weeks, result in words
Description: (§1) 200 µL of cell matrix gel suspension containing 5×10^6 MDA-MB-231 and HT-29 were inoculated subcutaneously on the back of immunodeficient mice (NCG or Balb/c-nude). When the tumor volume grew to 100 to 200 mm^3, the mice were randomly divided into groups (n=10) according to the tumor volume and nude mouse weight. The mice were dosed at doses of 5 mg/kg and 2.5 mg/kg once a week through the tail vein for a total of 3 weeks, as well as a group with PBS set as a negative control. The tumor volume and nude mouse weight were measured and recorded 2 to 3 times a week to plot the tumor growth curve. The formula for calculating tumor volume (V) is: V=1/2×a×b^2, where a and b represent the length and width of the tumor, respectively.
as §1, with “5 × 10^6 MDA-MB-231, 1 × 10^7 HCC1187, 1 × 10^7 PA-1, or 5 × 10^6 NCI-N87 was” for “5×10^6 MDA-MB-231 and HT-29 were”, “300 mm3,” for “200 mm^3,”, “(n=8 to 10)” for “(n=10)”, “The formula for calculating tumor volume (V) is: V=1/2×a×b^2, where a and b represent the length and width of the tumor, respectively.” left out

[2] = system: HT-29 tumors; assay: as above; parameters: species or system immunodeficient mice (NCG or Balb/c-nude); settings: 5 mg/kg and 2.5 mg/kg once a week, tail vein, 3 weeks, result in words
Description: as §1

[3] = system: COLO-678 cells; assay: In vitro anti-proliferative activity (CCK8); format: cell-based; settings: Bowel cancer, read-out: Proliferation inhibition rate IC50±SD
Description: (§2) The cell lines used in this example, including MCF-7, MDA-MB-231, NCI-N87, NCI-H446, HT-29, HCC827, and HCC1187 cells, were purchased from Cobioer Biosciences, Nanjing, and Yuchi Biology, Shanghai, and cultured according to the corresponding instructions. The above cells in logarithmic growth phase were inoculated into 96-well cell culture plates at a density of 250 to 1500 cells per well (depending on the growth rate of different cells) at 150 µL/well, and cultured at 37°C, 5% CO2 for about 3 to 5 hours. Then, mAb001c-vcMMAE at different concentrations were added, each drug concentration in 2 to 4 replicates, as well as the corresponding vehicle control and blank control wells. After 5 to 6 days of action (depending on the cell growth rate, to ensure a sufficient number of cell divisions), the culture medium was removed and CCK8 reaction solution (purchased from MCE, cat# HY-K0301) was added at 100 µL/well. The reaction was carried out at 37°C until the expected color depth. The cell viability (OD450 nm) of each group was measured, and the cell survival rate was calculated according to the following formula: survival rate = (OD drug-OD blank)/(OD control-OD blank) × 100%. The above data were analyzed by GraphPad Prism 5 software, and the IC50 values of the above ROR1 antibody-drug conjugates for different cell lines were calculated.
(§3) The cell lines used in this example, including breast cancer cell lines MCF-7, SK-BR-3, MDA-MB-231, and HCC1187, colorectal cancer cell lines HT-29, SK-CO-1, and COLO-678, lung cancer cell lines HCC827, and H446, ovarian cancer cell line PA-1, gastric cancer cell line NCI-N87, were purchased from Cobioer Biosciences, Nanjing, and Yuchi Biology, Shanghai, and cultured according to the corresponding instructions. The CCK8 method was used to determine the in vitro killing activity of Hu001-2-MMAE, Hu001-3-MMAE, Hu005-44-MMAE, and Hu005-46-MMAE against various cancer cells, as well as UC961-MMAE as a positive reference. The implementation method was referred to Example 13.

[4] = system: HCC1187 cells; assay: In vitro anti-proliferative activity (CCK8); format: cell-based; settings: Breast cancer, read-out: Proliferation inhibition rate IC50±SD
Description: as §2, §3

[5] = system: HCC827 cells; assay: In vitro anti-proliferative activity (CCK8); format: cell-based; settings: Lung cancer, read-out: Proliferation inhibition rate IC50±SD
Description: as §2, §3

[6] = system: HT-29 cells; assay: In vitro anti-proliferative activity (CCK8); format: cell-based; settings: Bowel cancer, read-out: Proliferation inhibition rate IC50±SD
Description: as §2, §3

[7] = system: MCF-7 cells; assay: In vitro anti-proliferative activity (CCK8); format: cell-based; settings: Breast cancer, read-out: Proliferation inhibition rate IC50±SD
Description: as §2, §3

[8] = system: MDA-MB-231 cells; assay: In vitro anti-proliferative activity (CCK8); format: cell-based; settings: Breast cancer, read-out: Proliferation inhibition rate IC50±SD
Description: as §2, §3

[9] = system: NCI-H446 cells; assay: In vitro anti-proliferative activity (CCK8); format: cell-based; settings: Lung cancer, read-out: Proliferation inhibition rate IC50±SD
Description: as §2, §3

[10] = system: NCI-N87 cells; assay: In vitro anti-proliferative activity (CCK8); format: cell-based; settings: Gastric cancer, read-out: Proliferation inhibition rate IC50±SD
Description: as §2, §3

[11] = system: PA-1 cells; assay: In vitro anti-proliferative activity (CCK8); format: cell-based; settings: Ovarian cancer, read-out: Proliferation inhibition rate IC50±SD
Description: as §2, §3

[12] = system: SK-BR-3 cells; assay: In vitro anti-proliferative activity (CCK8); format: cell-based; settings: Breast cancer, read-out: Proliferation inhibition rate IC50±SD
Description: as §2, §3

[13] = system: SK-CO-1 cells; assay: In vitro anti-proliferative activity (CCK8); format: cell-based; settings: Bowel cancer, read-out: Proliferation inhibition rate IC50±SD
Description: as §2, §3

[14] = system: HCC1187 tumors; assay: In vivo antitumor activity, subcutaneous tumor model; parameters: species or system immunodeficient mice (NCG or Balb/c-nude); settings: for Tumor inhibition rate (%): day 21
Description: as §1, with “5 × 10^6 MDA-MB-231, 1 × 10^7 HCC1187, 1 × 10^7 PA-1, or 5 × 10^6 NCI-N87 was” for “5×10^6 MDA-MB-231 and HT-29 were”, “300 mm3,” for “200 mm^3,”, “(n=8 to 10)” for “(n=10)”, “V=1/2×a×b2,” for “V=1/2×a×b^2,”

[15] = system: NCI-N87 tumors; assay: as above; parameters: species or system immunodeficient mice (NCG or Balb/c-nude); settings: for Tumor inhibition rate (%): day 21
Description: as §1, with “5 × 10^6 MDA-MB-231, 1 × 10^7 HCC1187, 1 × 10^7 PA-1, or 5 × 10^6 NCI-N87 was” for “5×10^6 MDA-MB-231 and HT-29 were”, “300 mm3,” for “200 mm^3,”, “(n=8 to 10)” for “(n=10)”, “V=1/2×a×b2,” for “V=1/2×a×b^2,”

[16] = system: PA-1 tumors; assay: as above; parameters: species or system immunodeficient mice (NCG or Balb/c-nude); settings: PA-1 model; for Tumor inhibition rate (%): day 28
Description: as §1, with “5 × 10^6 MDA-MB-231, 1 × 10^7 HCC1187, 1 × 10^7 PA-1, or 5 × 10^6 NCI-N87 was” for “5×10^6 MDA-MB-231 and HT-29 were”, “300 mm3,” for “200 mm^3,”, “(n=8 to 10)” for “(n=10)”, “V=1/2×a×b2,” for “V=1/2×a×b^2,”

[17] = 2.5mg/kg once a week x3, tail vein
[18] = 5mg/kg once a week x3, tail vein

B1: mAb001c-vcMMAE: antibody conjugate of chimeric antibody mAb001c coupled with vcMMAE, average DAR about 3.81 (conjugate)
VH: EVRLQQSGPVLVKPGASVKMSCKASGYTFTDYNLHWVKQSHRQSLEWIGYINPNHDGTSYNQKFQGKATLTVDRSSSTAYMEFRSLTSEDSAVYYCARRVRTGTGLDDWGQGTTLTVSS
VL: DVLMTQSPLSLPVSLGDQASISCRSSHNIVHTNGNTYLEWYLQKPGQSPKLLIYKVSNRFSGVPDRFSGSGSGTYFTLTISRVEAEDLGVYYCFQGSRFPYTFGGGTKLEIK
inhibition of the growth of MDA-MB-231 tumors [1]: completely inhibit
inhibition of the growth of HT-29 tumors [2]: significantly and dose-dependently inhibited

B2: UC961-MMAE: UC961 coupled with vcMMAE, prepared as a positive reference, average DAR about 3.95 (conjugate)
VH: QVQLQESGPGLVKPSQTLSLTCTVSGYAFTAYNIHWVRQAPGQGLEWMGSFDPYDGGSSYNQKFKDRLTISKDTSKNQVVLTMTNMDPVDTATYYCARGWYYFDYWGHGTLVTVSS
VL: DIVMTQTPLSLPVTPGEPASISCRASKSISKYLAWYQQKPGQAPRLLIYSGSTLQSGIPPRFSGSGYGTDFTLTINNIESEDAAYYFCQQHDESPYTFGEGTKVEIK
IC50 [3]: 0.0191 ± 0.00078 µM
IC50 [4]: 0.003 ± 0.0015 µM
IC50 [5]: 0.0453 ± 0.0257 µM
IC50 [6]: 0.0246 ± 0.00104 µM
IC50 [7]: > 0.1 µM
IC50 [8]: 0.0135 ± 0.00361 µM
IC50 [9]: 0.0116 ± 0.00252 µM
IC50 [10]: 0.0112 ± 0.00247 µM
IC50 [11]: 0.00335 ± 0.00012 µM
IC50 [12]: > 0.1 µM
IC50 [13]: 0.00575 ± 0.00246 µM
Tumor volume ± SE (mm^3) on day 21th of administration [14, 17]: 2576.56±461.28 mm^3
Tumor inhibition rate (%) ([14]; 2.5mg/kg): 15.18%
Tumor volume ± SE (mm^3) on day 21th of administration [14, 18]: 407.09±69.85 mm^3
Tumor inhibition rate (%) ([14]; 5mg/kg): 86.60%
Tumor volume ± SE (mm^3) on day 21th of administration [15, 17]: 2010.44±266.07 mm^3
Tumor inhibition rate (%) ([15]; 2.5mg/kg): 19.87%
Tumor volume ± SE (mm^3) on day 21th of administration [15, 18]: 1171.18±130.32 mm^3
Tumor inhibition rate (%) ([15]; 5mg/kg): 53.32%
Tumor volume ± SE (mm^3) on day 28th of administration [16, 17]: 1032.13±123.29 mm^3
Tumor inhibition rate (%) ([16]; 2.5mg/kg): 32.09%
Tumor volume ± SE (mm^3) on day 28th of administration [16, 18]: 44.67±3.04 mm^3
Tumor inhibition rate (%) ([16]; 5mg/kg): 97.06%
